Target: Human IL-17RC:Fc (human) (UniProt Q8NAC3)
Test: SPR (BIAcore 3000), receptor:Fc captured by anti-human Fc, cytokine as analyte, koff/kon, 1:1 Langmuir fit

Chain of Human IL-17A (Q16552 20-155 limits assumed): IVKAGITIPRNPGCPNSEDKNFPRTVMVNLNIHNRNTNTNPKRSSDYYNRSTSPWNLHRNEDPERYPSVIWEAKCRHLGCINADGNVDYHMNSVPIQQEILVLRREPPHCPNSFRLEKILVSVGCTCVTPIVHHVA

Substance	Kd
Human IL-17A (from UniProt Q16552 20-155) (ligand)	50 pM
Mouse IL-17F (from UniProt Q7TNI7 29-161) (ligand)	30 pM
